PMC1142346

Assays:
Experiment in all cases: fluorescence anisotropy
[1] = molecular target: BLM642-1290 zinc-demetalated (WTzn-) (Homo sapiens, UniProt P54132 642-1290)
BLM642-1290 WT = BLM642-1290 WT (Homo sapiens, UniProt P54132 642-1290)
BLM642-1290 C1063N = BLM642-1290 C1063N (Homo sapiens, UniProt P54132 642-1290, C1063N)
[2] = molecular target: BLM642-1290 C1055N/C1063N (Homo sapiens, UniProt P54132 642-1290, C1055N;C1063N)
BLM642-1290 C1055N = BLM642-1290 C1055N (Homo sapiens, UniProt P54132 642-1290, C1055N)
BLM642-1290 C1055N, sequence (P54132 642-1290 C1055N): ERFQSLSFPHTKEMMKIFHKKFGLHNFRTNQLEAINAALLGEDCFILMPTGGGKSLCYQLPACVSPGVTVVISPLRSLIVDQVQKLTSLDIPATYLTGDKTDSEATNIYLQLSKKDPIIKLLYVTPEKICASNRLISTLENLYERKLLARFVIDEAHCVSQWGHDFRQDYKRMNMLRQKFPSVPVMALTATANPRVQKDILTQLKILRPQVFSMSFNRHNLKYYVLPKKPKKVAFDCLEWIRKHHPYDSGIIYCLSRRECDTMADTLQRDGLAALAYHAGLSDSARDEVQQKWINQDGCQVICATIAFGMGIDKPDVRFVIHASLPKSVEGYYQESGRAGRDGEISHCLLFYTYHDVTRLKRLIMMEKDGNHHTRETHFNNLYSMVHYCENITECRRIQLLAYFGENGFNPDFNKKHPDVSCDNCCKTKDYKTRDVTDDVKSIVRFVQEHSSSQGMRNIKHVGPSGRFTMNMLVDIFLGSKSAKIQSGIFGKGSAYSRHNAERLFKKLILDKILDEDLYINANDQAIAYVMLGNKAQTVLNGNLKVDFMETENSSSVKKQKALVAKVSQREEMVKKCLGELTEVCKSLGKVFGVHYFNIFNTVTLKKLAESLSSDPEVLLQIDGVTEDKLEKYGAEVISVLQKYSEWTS

BLM642-1290 C1063N, sequence (P54132 642-1290 C1063N): as the sequence (P54132 642-1290 C1055N) above, with N414C, C422N counted along it
BLM642-1290 C1055N/C1063N, sequence (P54132 642-1290 C1055N/C1063N): as the sequence (P54132 642-1290 C1055N) above, with C422N counted along it
BLM642-1290 WT, sequence (P54132 642-1290): as the sequence (P54132 642-1290 C1055N) above, with N414C counted along it
BLM642-1290 zinc-demetalated (WTzn-), sequence (P54132 642-1290): as the sequence (P54132 642-1290 C1055N) above, with N414C counted along it

Binder	Kd [1] [nM]	Kd (BLM642-1290 WT) [nM]	Kd (BLM642-1290 C1063N) [nM]	Kd [2] [nM]	Kd (BLM642-1290 C1055N) [nM]
GGGTTAGGGTTAGGGTTAGGG (structured_DNA) [F21 G4 DNA]	4.85	4.57	1990	–	–
A/B partial duplex (23mer duplex with ss tails), fluorescent (dsDNA) DNA 1: GCACTGGCCGTCGTTTTACGGTCGTGACTGGGAAAACCCTGGCG DNA 2: TTTTTTTTTTTTTTTTTTTTTTAGCCGTAAAACGACGGCCAGTGC	–	–	–	209 ± 3.5	56 ± 1.8
